Starred links: 1 amine or outer side, 2 acyl side, 3 side chain; linkers in the order of their positions; H or OH if unused. Positions of bridges follow the written chain, without caps; N, C: chain ends. Non-standard residues stand in square brackets, D forms with d. No end group written: not given here. Trimesoyl = O=C(c1cc(C(=O)[*:2])cc(C(=O)[*:3])c1)[*:1]; Phe(4-Cl) = N[C@@H](Cc1ccc(Cl)cc1)C(=O)O; Phe(4-F) = N[C@@H](Cc1ccc(F)cc1)C(=O)O; 2Nal = N[C@@H](Cc1ccc2ccccc2c1)C(=O)O; d2Nal = N[C@H](Cc1ccc2ccccc2c1)C(=O)O; βAsp = O=C(O)[C@H](CC(=O)[*:2])N[*:1]; Nle = CCCC[C@H](N)C(=O)O; Orn = NCCC[C@H](N)C(=O)O; Dap = NC[C@H](N)C(=O)O; TMA = not defined here; βAla = NCCC(=O)O Some results are limits rather than exact numbers.

Common to all, as to conditions: both partners purified
Assay [1] concerns the target T1, Ehrlichia translocated factor-1 (Etf-1) (Ehrlichia chaffeensis, UniProt Q2GG12 1-380). Description: fluorescence polarisation. On the technique in general: Fluorescence polarisation rises when a labelled molecule tumbles more slowly, as on binding a larger partner.
For assay [2], the target named is T1, Ehrlichia translocated factor-1 (Etf-1). Description: fluorescence polarisation. This is another data set of the same source.
In assay [3] the target is T2, recombinant full-length BECN1 protein (Beclin 1) (human, UniProt Q14457 1-450).
T2 construct: also called ATG6; source: size exclusion chromatography
T2 sequence (Q14457 whole entry): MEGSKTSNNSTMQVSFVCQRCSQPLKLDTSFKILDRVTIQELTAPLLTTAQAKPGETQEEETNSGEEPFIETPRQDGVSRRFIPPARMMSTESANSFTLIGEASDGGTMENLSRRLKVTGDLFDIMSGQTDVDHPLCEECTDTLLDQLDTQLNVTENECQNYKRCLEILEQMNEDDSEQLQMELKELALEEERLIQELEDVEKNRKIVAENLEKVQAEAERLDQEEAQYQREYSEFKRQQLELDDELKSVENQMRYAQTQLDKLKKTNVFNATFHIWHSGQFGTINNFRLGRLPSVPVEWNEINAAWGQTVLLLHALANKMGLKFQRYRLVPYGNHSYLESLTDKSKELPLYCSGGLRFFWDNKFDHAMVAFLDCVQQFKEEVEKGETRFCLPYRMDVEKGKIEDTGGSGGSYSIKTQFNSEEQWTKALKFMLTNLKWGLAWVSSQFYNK
Description: SPR; OpenSPR; biotinylated rEtf-1 (1 μM) immobilised on a streptavidin sensor chip, BECN1 dilutions as analyte; 20 mM Tris pH 8.0, 100 mM NaCl, 0.05% Tween 20; 30 µL/min.

In assay [4] the target is Ehrlichia translocated factor-1 (Etf-1), recombinant 6×His-Etf-1 fusion protein (E. chaffeensis, UniProt Q2GG12 1-380). As to the kind of experiment: fluorescence polarisation.

For orientation: Kd means the concentration at which binding is half-saturated. Regarding Y[Nle][dE]QG[dL][Dap][Phe(4-Cl)][d2Nal][dR]R[dR]R[Dap]-{Lys(FAM)} (linker N-7-14 via Trimesoyl; not fully specified (N-terminus)) [macrocyclic peptide B7-133-4, FAM-labelled], binding in assay [1] was characterised by a dissociation constant (Kd) of 6.5 ± 0.1 µM. In the case of IHA[Orn][dK][Dap]F[2Nal]RRR[Dap] (linker 6-12 via TMA; not fully specified (C-terminus); reading uncertain) [macrocyclic peptide C19, FAM-labelled], in assay [2], the Kd is > 25 µM.

B1: biotinylated full-length Etf-1 protein (natural protein, E. chaffeensis, UniProt Q2GG12 1-380, looked up)
chain: MLTFLKKGANVVIKAAITPTTSKLPHQESVGKYLGGMLKSIIPGQKDPAEKHFDLRMHNRTHKLGVELPARTRIDGHEQEVALKVPSYKLPYQTLQKFAAWQEQDKEGEVEETKKDTLTSLINPVSATQEFIRSNTADKYFEKLKALDQQLKEIGGKVTVNSTPGRYKQGLTIELDVSNKSRIAIEKDVRLVLEGLGINDEELVKTFTKRLYKSSTDKKMSSADIHTEKTSSNTDSKDNSNNQDHDIVSPAKRHGSDTVSAVQRQGDDILSSSQEQSSKTGSPTNSTGISNSDFSLTNPQNMPYSRTPMQSSQMLQQLQNQILMQQKPERIFSQAMPTVMQQEIDEIAEDLCQGLNEGPTQGNSNNIGKHFSNPGKVHAR
modifications: biotin (two equivalents of NHS-PEG4-D-Biotin, pH 8.0)
notes: source: E. coli BL21(DE3), purified (HisPur Cobalt resin, size exclusion chromatography), then biotinylated
In the case of B1, the Kd in assay [3] came to 0.06 ± 0.001 µM. For YH[d2Nal]QS[Phe(4-F)][dL][Dap][Phe(4-Cl)][d2Nal][dR]R[dR]R[Dap]-{Lys(FAM)} (linker N-8-15 via Trimesoyl; not fully specified (N-terminus)) [macrocyclic peptide B7-131-2, FAM-labelled], the Kd in assay [1] worked out at 8.8 ± 0.9 µM. Consider IDA[Nle]H[Dap]F[2Nal]RRR[Dap] (linker 6-12 via TMA; not fully specified (C-terminus); reading uncertain) [macrocyclic peptide C9, FAM-labelled], for which, in assay [2], the Kd is > 25 µM.

B2: FAM-labeled macrocyclic peptide B17 (peptide)
chain: XFGDYXFXRRRRX
modifications: not fully specified; carboxyfluorescein (FAM) at the C-terminus through a β-Ala-β-Ala-Lys linker
B2: the Kd in assay [4] is > 25 µM.

B3: macrocyclic peptide B22, FAM-labelled (peptide)
chain: [dV][Orn][dN]H[dA][Dap]F[d2Nal][dR]R[dR]R[Dap]-{βAla-βAla-Lys(FAM)}
modifications: linker 6-13 via TMA; reading uncertain; also: TMA third attachment point not given here
For the molecule B3, in assay [2], the Kd is > 25 µM. The molecule Y[dA]D[dY][dA][dL][Dap][Phe(4-Cl)][d2Nal][dR]R[dR]R[Dap]-{Lys(FAM)} (linker N-7-14 via Trimesoyl; not fully specified (N-terminus)) [macrocyclic peptide B7-133-2, FAM-labelled] returned a Kd in assay [1] of 8.2 ± 1.2 µM. On the same count and under the same terms, the result for Y[βAsp]HDH[dL][Dap][Phe(4-Cl)][d2Nal][dR]R[dR]R[Dap]-{Lys(FAM)} (linker N-7-14 via Trimesoyl; not fully specified (N-terminus)) [macrocyclic peptide B7-133-5, FAM-labelled] reads > 10 µM.

B4: FAM-labeled macrocyclic peptide B22 (peptide)
chain: VXNHAXFXRRRRX
modifications: not fully specified; carboxyfluorescein (FAM) at the C-terminus through a β-Ala-β-Ala-Lys linker
Turning to B4, the Kd in assay [4] was > 25 µM.

B5: FAM-labeled macrocyclic peptide B13 (peptide)
chain: EHFEHAXFXRRRX
modifications: not fully specified; carboxyfluorescein (FAM) at the C-terminus through a β-Ala-β-Ala-Lys linker
Turning to B5, the Kd in assay [4] was > 25 µM.

B6: FAM-labeled macrocyclic peptide B7-133-5 (peptide)
chain: YDHDHLXFXRRRRX
modifications: not fully specified; same peptide as Dm35 (Table S3); bicyclic via TMA to Dap7 and Dap14; D2=isoAsp, D-Leu6, X7/X14=Dap, F8=4-chloro-Phe, X9=D-2-Nal, D-Arg10, D-Arg12; linker Lys(FAM) left out
On to B6, for which the Kd in assay [4] was > 10 µM. Turning to QHS[dV][Dap][dF][2Nal]R[dR]R[Dap] (linker 5-11 via TMA; not fully specified (C-terminus); reading uncertain) [macrocyclic peptide C6, FAM-labelled], the Kd in assay [2] was > 25 µM.

(Values after PMC9982066, “Inhibition of Ehrlichia chaffeensis infection by cell-permeable macrocyclic peptides that bind type IV secretion effector Etf-1” (PNAS Nexus, 2023).)
